System: GSC7 cells
Assay: Nano-Glo Dual-Luciferase Reporter (Nanoglo DLR) assay of enhancer activity, fold change to mCMV
Format: cell-based, human
Details: expression fold change of the individual enhancer compared to mCMV
Text: We chose an arrayed library format, with 160 bp enhancer fragments individually cloned into separate plasmids and arrayed in 96 well plates. These 160 bp were synthesized as a single pool of oligos, then randomly cloned into the plasmid and isolated. 20 bp×2 were needed for PCR amplification of the pool and so a library of 200 bp fragments was synthesized (Twist Biosciences). To meet our oligo synthesis strategy, ChIP-seq peaks expressed by GSCs were merged into a single oligo. This oligonucleotide pool was PCR-amplified (using limited cycles to reduce bias and ‘jackpot’ products meaning products which are easier to amplify will overtake the oligonucleotide pool) and cloned into the expression vector by an efficient Golden Gate reaction. 4579 individual plasmids were then randomly picked, isolated and plated as an arrayed plasmid DNA library on 96 well plates (×48). The bacterial colony picking and production of plasmid minipreps were supported by the Edinburgh Genome Foundry (S. Rosser). This library was then screened using the optimised Nanoglo DLR assay (Nano-Glo Dual-Luciferase Reporter Assay, Promega) in 384 well format. Each plate was transiently transfected together with PGK-FFLuc in a 1:10 ratio into GSC7 cells. 2 days later a Nanoglo DLR assay was performed and assayed on a plate reader.
Cells were seeded in 384 well plates using a multidrop and transfected the following day using the CyBio Felix. Two days later the experiment was terminated with a Nanoglo DLR assay and all hits with a fold change to mCMV greater than 10 were Sanger sequenced and mapped back to the genome.
Cells were seeded at the required density. The following day the transfection was carried out. For this the Plus reagent and Lipofectamine LTX (Life Technologies, 15338030) were each diluted in half the volume of Opti-MEM I Reduced-Serum Medium (further referred to as Optimem) (Life Technologies, 31985062). Following this step, the Plus reagent/Optimem premix was added to all DNA samples followed by the Lipofectamine LTX/Optimem premix. The transfection mix was incubated for 5 min at room temperature and then carefully dropped on the cells. Generally, no media change was carried out. Cells were analysed two days following transfection.
This assay consists of two steps. The transfection was carried out using a normalisation plasmid PGK-Firefly-Luciferase (Promega, E5011) that was transfected in a 1/10 ratio with the plasmid of interest. First, the Firefly Luciferase activity is measured which allows to normalise to transfection efficiency. In a second step, the activity of Nanoluc is determined which is the readout of the plasmid of interest. Cells were washed 3× with PBS and 20 μl was left in the 96 well plate after the final wash (25 μl in 384 well). Oneglo buffer was added and the plate was shaken for 5 min at 480 rpm to allow cell lysis. 20 μl cell lysate in 96 well format or 25 μl cell lysate in 384 well format was then transferred into the corresponding opaque white plate and luminescence was measured at for 0.1 s per well using the Ensight Multimode Plate Reader. For the following Nanoluc reaction in a 96 well format 2 μl cell lysate was transferred into an opaque white plate containing 40 μl PBS, and 20 μl Stopglo buffer, supplemented with substrate, was added to each well. In a 384 well format 20 μl Stopglo buffer containing substrate were added on top of the undiluted cell lysate. The plate was shaken again for 5 min at 480 rpm to quench the firefly luciferase reaction and ensure good mixing. Nanoluc activity was measured for 0.1 s per well, again using Ensight Multimode Plate Reader.
Data obtained by the Nanoluc reaction was normalised to Firefly reaction to account for well-to-well variability of transfection efficiency. Normalised data were used to calculate the fold change to the empty vector control mCMV.

Molecule | Fold change (Median)
CSE078: clustered SOX dimer motif enhancer, SEQ ID NO: 43 (nucleic acid) DNA: TGTCGGGCAGCCAAGACCTGTCAGGGACAAGAGTGCTGTGAGCTGCGGGCTGGTGGGTGGAAGGAGAGAGGCCCCTGGTGCTCCTGCCAAGCCAAGGAATGTGTCATTGCTGTGCTGTGCCTTCAGCCTGGCATTTGGGAACAAAGAGGTACTTTGTATGGATAACATAGACCAGGTTGTTGGGGAAGGGATCAGAGATGGGGGTAGACCCATTTTTAAAAATCTGCTCATGTCCCAGGCAAGTTTTTTTGGCAGGGATTGCAGTTGGGCTATTACAAAGAGCTGCTGTACACGAGGGGTATGTCTACTACTGTCAAATTACAGCAGCAATTATCTTGGGCACTG | 10 fold
CSE014: clustered SOX dimer motif enhancer, SEQ ID NO: 47 (nucleic acid) DNA: GCCTTTTAGCTGATTAACAAATACAGTGAATTTAACTTTGTAGATTCTTAACATTTAAAGACAACAGTCTAAGGCAATTTAAAGTATATTCTGCCAATCAGTTGTTGAGTTAGACCACCCATAGCCTTTTTTTATTCTTCATTGTTTGAATAATATGGGAGGAAATTTAGTGTATACTCTCTTCTTCCTGTATTTTCCAGTTAGATTAAGCTGTTGTCTTCACAATTGCCTCCCAGCTGCTGTGACTTGTGAAAACAACAGACCCTGCTCTGTTGTCTGGAGAAAGCCGGGATTGTTATGAGTAACTTTATTGCAGGCACATGAGTGTGTTAAGACTTTAAAACACGCTCAAATGTCATGTGCACACCCAATGACGGGCAAGAATAATTATGAAAAAACAAGAAATCTATGTCTATGAAACCGTGTTGGACAAAATGGGCCATTCATTGTGTTCCCCTGGGAATGCCTGGACTCTGCAGTCAGAAAACAAAAAAGGCACTTTTTTCCTGCCGTAGGCTGAATGCTTAGCTTTGCCATCTGAGCCCTAAGAAAACATGGGCCCCTCTACTGCTGGCGCACCCACGCACACTAAAAAATATTAATGCCTCTCTCTCCTTACTTTTTTCCAGGCATTCCCTCGTGTAGGCTGTAGCCAATATAATGTCAACACAAA | 27.7 fold
CSE033: clustered SOX dimer motif enhancer, SEQ ID NO: 46 (nucleic acid) DNA: CTGGGGAACAAAACTTAGATCTTGATCATCCAGCATAGCTCTGGCATGCTGAGCGTGTGATACACCTGTCTCTACCGTCAGGCAAACGAGTGGGTTCACAGGCAGAGGCCTGCCCTGCCAAACAATGCTCCCCTTTGTCCCCGCCCAGGGCTCAGGAGCCGCAAGGAAGCCAAATCCATCAGCACTTGTCAGGGCCCTTGATGCACACAATGCAAGTTATGATCCACAGTCCCCGGCAAAGCCCCAGGCTTCCAGCAGGCAGCATTAACTGACACGCAATGTGTCAGTCAGCCTTCTAAAAGCCAGGGGTGGGGATCCGTGCCAGGGGGCCACTGAGCTCTCATTCCCAGAAGCCAACCAGAGCC | 20.9 fold
CSE012: clustered SOX dimer motif enhancer, SEQ ID NO: 40 (nucleic acid) DNA: GTAGAGAATAGATTCTGTAGGGCTTTTAACCTCCACTGTTATTCCAAGGATGGGGCTCAGCTTCCTTCTTTTCCTTTCTGACTCTGTCTATATCAAGGGTCCCGTGGGTTGTTCCTTTCCATTGTGGTCTCACTGCCCAGCTTTAAGGCACCATCCTGGCACAGTGATAGGTTTACCTTTGTCTAAAAGTGTCCATTTGCATCTCTGTGGCCTTCTTGCCTGGGTGACACCCACTTGATTAGGCATTTGCCCAGTGTGAGATCAGAGTCCCTCATTTACATTTCCCCACAATAGTGAATGGCTTACAGGCTGTTCAAATACAGTTTCTAAACAGTGAATAATTCAGCCAGAAAGCCAGCCTTTTAAGGTTTGGATTTGGGGCATTTCTGAG | 10.3 fold
ID4328: enhancer fragment, SEQ ID NO: 7 (nucleic acid) DNA: TACAATCTATTCTCCATAGTCATCAGAGTTTCTTTAAAGGCACGGTTCAGACAATGGCACCCTCTGTTCCAAACCCTCCAGGGCTTCCTATTTCACTTAGCATAAAAACCAAAGTCCTCACAATGACCGACAAGTCTTCACACAATGTGCCCCTTCATTG | 100.7 fold
CSE088: clustered SOX dimer motif enhancer, SEQ ID NO: 44 (nucleic acid) DNA: CTCGATACCCACATTCCTAACCTTTTAATGCCAAGCAGCCTATAAGCATGTCAAATTTTACTCATGTTCCTGCTCTTTCCACTCAAGTTGGCTTTGTGGGTTGCTGGTTTTATCAAAATTGAGTGAGAGTGTGTTCAATACAATGTTGGATTCATTAGGGAGAAAAAAGCCAAATAAAAACCTTGCTTCTTCAATGCCAGGAGCTTACAAAGACATATAAACCATGAGGAATTCCAAGGACTTGCTCAGAAGCCGTTCTGCAAATGCATTTCTTGAACAAAGGGCCAATGTTCCTTTCAGGGAAGAGCGCGGGACTGGTTTCCGGCATTTTTCTTTAAATCATTAGGACCATGCCAGCAAACAAACATATACAGCCCCTGGGAGAAAGAATCTCATTCAACACAGCTTACAAGAGTTTGATTATTAGGGAGGGGTGCTTCATGGCACGTGCCTCACCAGCCGGCCCCCAAATGTACAGATCTGTTTAAAGGGCTTTATTGATGGTGGCCGCAGACAGATAGAGCTTGTGAGGAGAACTGACATCCCATGGATACTAACATATCAGCATCATCCTGACCAGCACACAATCCAGTCAGAGAGAGCTGAAAAGTCTGCCTCATTCCCTTGAAAATGTGCTTCTTAAGACAAATAAAATATAGAAATAAGAAATTCACCTC | 16.5 fold
CSE025: clustered SOX dimer motif enhancer, SEQ ID NO: 45 (nucleic acid) DNA: ATGGACAATGGCAGCCTGAAAGAATATGAGGGAGGGTCACCAGTGATGGACATGGTTTGGGGAGAGCCCAAGAATTGAAGGGGACTTGGGATTGTTGACAGACCTTCCACATCTCAGAATGGGGGAAGTGGTTTCTTTTTTCCTCATTCTCCAAGGCTTCTCAGTCTCAGAGACCCCAAGAGATGCCATTAATACAGATTCCTCCTCTGGCTCCTTTGAGACATTTGCTTTTGAAGGACCTGGAAGAGAAAGCTCTTTGTATGTGGCCAGAATAAACTCATTGTACACCCAAACAATTAACTCCTCAATGGACTTGCCAGCCCCTTGAAAGGCCTGGCCCTGCGTCCCTGGACCTCTTGGGCTCTATTCAGTCCCTTAAGCACACCAATGTTTTTGGGTTTTTGTTTTGTTTTGTTTGTTATTCTGAAAAGTCTTTCCCTGAGAATAGTCTGAGCGGATCAACATTGTCCTCAGCCTGGCATTTATCTCTCCTCGCCAGCGAATGTCAATCAGGAATCAAAAAGCCAAACAGAGGAGGCTTTGAACGGTGTCATCGGGGGTCGAAGTGACTTCCAGCTGTCTGTGCGTGGGCCAGGCCTTCTCGCAGGGCAAGGAATTGTGCTGTCACACAAACCCACTGTCTGTATAGGCTCACAGAGCCCA | 21.3 fold
CSE005: clustered SOX dimer motif enhancer, SEQ ID NO: 41 (nucleic acid) DNA: TCCCTTGGAAAGTGTTCAAATCAAAGCTACCTTTATACCACACTCCTTTGTGTCCTGATGTCCTGAATAGTGAGATTATCGGGTACACCCACCTGTTCCTGCACTTCCTTCCTGCTCAATTTAAATAAACAATGAGCTGTTTTTCTTCTTGACAAAGAGCCAGTCTATACAACAGCAGCAGGAAGATTACTTTCTATCTGTATGCAAACAGATACATAGCTGAGTTCTCTCCAATCCCCGGGAAAAGACCCTTTTAACTAAATGACTTATGCTTCT | 11.5 fold
CSE034: clustered SOX dimer motif enhancer, SEQ ID NO: 42 (nucleic acid) DNA: GCCATAATTTGAACCTCGGAGTGCCCCACTGACAGCCAACGACACCAGAGGGTCCCTTTGTATGTAAGGATTGCATGACTCCAGTTGAATGACCCAAGCCGGGGACAAACAGGAAAGAACCCAGCAGCTCTGGAGGCCACTTGAGCTGACTGTCAAATGCTCTGGGCTGATTAACGACTACGAACTTCAGGGAAGACAAGTGTGCTTTGATGCCACAGAGCTATCCTGGGCCTGTACAGGCCCGTTTCTGCTCTGAATGAGGAAGCTGTACTTTGCAGGCACCCGGCAGAACAAGAATAGGGCCTAAGATACCTGAATGAAGGGCACAGAGGAAGTACAAAATACAGTCATTGTTGGAGCTAGAAGCTGGTGCCAGGCTACGAGGGGGCCCAGTGGCCAAGCATTATG | 14.3 fold

Reference: patent publication US20260241035A1, “FUNCTIONAL NUCLEIC ACID MOLECULE AND METHOD” (THE UNIVERSITY COURT OF THE UNIVERSITY OF EDINBURGH, priority 2022, published 2026)
